These substances were tested against mef2b_human MEF2B (UniProt Q02080).
Chain of mef2b_human MEF2B (Q02080 whole entry): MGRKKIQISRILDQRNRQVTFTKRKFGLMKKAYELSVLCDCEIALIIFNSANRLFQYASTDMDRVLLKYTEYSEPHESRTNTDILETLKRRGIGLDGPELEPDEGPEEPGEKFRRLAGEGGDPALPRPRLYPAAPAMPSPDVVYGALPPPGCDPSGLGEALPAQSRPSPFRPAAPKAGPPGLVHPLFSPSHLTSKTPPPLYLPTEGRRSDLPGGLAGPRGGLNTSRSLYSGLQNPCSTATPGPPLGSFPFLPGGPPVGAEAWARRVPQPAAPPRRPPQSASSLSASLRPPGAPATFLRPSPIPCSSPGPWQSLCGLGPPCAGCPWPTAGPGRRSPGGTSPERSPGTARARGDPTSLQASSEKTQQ

Row | Substance | effect of a mutation on the interaction
1 | Calcineurin-binding protein cabin-1 (Homo sapiens), Q9Y6J0 L2172W | disrupting interaction strength
2 | Calcineurin-binding protein cabin-1 (Homo sapiens), Q9Y6J0 L2172K | disrupting interaction strength
3 | Calcineurin-binding protein cabin-1 (Homo sapiens), Q9Y6J0 Q2170W | with no effect
4 | Calcineurin-binding protein cabin-1 (Homo sapiens), Q9Y6J0 I2176A | decreasing interaction strength
5 | Calcineurin-binding protein cabin-1 (Homo sapiens), Q9Y6J0 L2172A | disrupting interaction strength
6 | Calcineurin-binding protein cabin-1 (Homo sapiens), Q9Y6J0 Q2170A | with no effect
